Values of other authors as cited in PMC10215765.

Molecular target: Band 3 cytoplasmic N-terminal domain (Homo sapiens) (UniProt P02730)
Sequence of UniProt P02730 (P02730 1-379): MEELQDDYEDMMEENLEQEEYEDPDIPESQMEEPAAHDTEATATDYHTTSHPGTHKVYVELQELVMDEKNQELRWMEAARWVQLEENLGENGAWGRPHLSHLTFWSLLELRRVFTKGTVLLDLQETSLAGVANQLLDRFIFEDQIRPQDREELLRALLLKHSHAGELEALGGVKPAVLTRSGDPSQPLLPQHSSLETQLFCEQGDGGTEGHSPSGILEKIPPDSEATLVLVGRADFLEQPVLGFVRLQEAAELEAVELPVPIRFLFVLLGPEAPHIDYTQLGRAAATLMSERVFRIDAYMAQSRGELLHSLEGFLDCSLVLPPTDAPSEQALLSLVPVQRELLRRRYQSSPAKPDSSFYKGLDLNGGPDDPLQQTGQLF

Kd: 0.034 µM
Substance: Peroxiredoxin 2 (from UniProt P32119)
